T1: His-HA-Clstn3 Ecto (extracellular domain of mouse Clstn3) (mouse, UniProt Q99JH7 21-846)
T1 construct: extracellular domain of mouse calsyntenin-3, aa 21-846; also called His-HA-Clstn3 Full (methods); source: purified recombinant protein (pCAGGS vector); not shown: His6, N-terminal, kept; HA, N-terminal, kept
T1 sequence (looked up): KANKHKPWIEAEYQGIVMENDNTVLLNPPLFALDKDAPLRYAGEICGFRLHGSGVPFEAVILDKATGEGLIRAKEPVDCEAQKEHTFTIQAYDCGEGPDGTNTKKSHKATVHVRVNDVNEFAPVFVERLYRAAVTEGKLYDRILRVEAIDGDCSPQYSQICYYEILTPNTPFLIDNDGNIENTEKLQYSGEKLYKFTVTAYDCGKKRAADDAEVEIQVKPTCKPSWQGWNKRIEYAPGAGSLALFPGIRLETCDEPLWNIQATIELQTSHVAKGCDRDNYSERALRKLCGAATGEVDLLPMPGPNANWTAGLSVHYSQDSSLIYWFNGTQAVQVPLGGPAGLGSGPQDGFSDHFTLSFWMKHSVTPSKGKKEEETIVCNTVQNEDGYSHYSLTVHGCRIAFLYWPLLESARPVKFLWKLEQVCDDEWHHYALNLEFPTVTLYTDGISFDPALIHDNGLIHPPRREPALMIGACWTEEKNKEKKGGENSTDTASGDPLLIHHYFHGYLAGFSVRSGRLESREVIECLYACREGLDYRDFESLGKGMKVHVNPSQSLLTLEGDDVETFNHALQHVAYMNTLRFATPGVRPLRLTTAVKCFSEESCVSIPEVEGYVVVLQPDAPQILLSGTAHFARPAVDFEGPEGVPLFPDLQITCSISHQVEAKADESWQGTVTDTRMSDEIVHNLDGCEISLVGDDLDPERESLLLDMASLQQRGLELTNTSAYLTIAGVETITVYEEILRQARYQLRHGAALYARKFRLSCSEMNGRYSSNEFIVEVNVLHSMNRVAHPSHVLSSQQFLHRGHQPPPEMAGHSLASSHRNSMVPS

B1: Ig-mNrxn1β^+SS4 (Fc fusion)
chain: not shown
notes: signal peptide in the construct; extracellular region of mouse neurexin-1β with the SS4 insert, aa 1-389; also called Ig-Nrxn1β^+SS4; pCMV-IgC-mNrxn1β^+SS4; source: HEK293T, purified (protein A-Sepharose)

Experiments:
[1] = target: T1, His-HA-Clstn3 Ecto (extracellular …); assay: pull-down; direct protein-interaction assay: 10 μg purified Ig-Nrxn1 with 4 μg purified His-HA-Clstn3, 2 h at 4°C, 25 mM Tris pH 7.5, 30 mM MgCl2, 40 mM NaCl, 0.5% Triton X-100; precipitated with Talon resin, blot with anti-human IgG; settings: both partners purified
Ig-mNrxn1β^+SS4 = target: B1; assay: as above; settings: both partners purified
Sequence of Ig-mNrxn1β^+SS4 (P0DI97 47-389): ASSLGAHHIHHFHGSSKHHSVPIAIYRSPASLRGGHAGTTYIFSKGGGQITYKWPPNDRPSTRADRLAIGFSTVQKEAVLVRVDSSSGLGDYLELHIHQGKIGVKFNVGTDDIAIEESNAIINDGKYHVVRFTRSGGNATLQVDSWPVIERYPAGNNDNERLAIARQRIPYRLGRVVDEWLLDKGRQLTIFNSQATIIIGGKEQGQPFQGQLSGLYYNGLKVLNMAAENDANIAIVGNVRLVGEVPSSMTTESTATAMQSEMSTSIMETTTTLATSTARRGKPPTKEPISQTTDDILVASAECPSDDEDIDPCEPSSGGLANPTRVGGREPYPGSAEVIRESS

binding result [1]	binding result (Ig-mNrxn1β^+SS4)	Binder
binds		B1
	binds	His-HA-Clstn3 Cad (extracellular, cadherin domains) (domain or fragment, mouse, UniProt Q99JH7 21-269, looked up, mouse calsyntenin-3, aa 21-269 (cadherin domains); source: purified recombinant protein (pCAGGS vector); not shown: His6, N-terminal, kept; HA, N-terminal, kept) KANKHKPWIEAEYQGIVMENDNTVLLNPPLFALDKDAPLRYAGEICGFRLHGSGVPFEAVILDKATGEGLIRAKEPVDCEAQKEHTFTIQAYDCGEGPDGTNTKKSHKATVHVRVNDVNEFAPVFVERLYRAAVTEGKLYDRILRVEAIDGDCSPQYSQICYYEILTPNTPFLIDNDGNIENTEKLQYSGEKLYKFTVTAYDCGKKRAADDAEVEIQVKPTCKPSWQGWNKRIEYAPGAGSLALFPGIR
